Sequences and labels used below:
B2: TDP‐43 low‐complexity domain (TDP‐43^LCD), amino acids 267–414 of TDP‐43 (domain or fragment, UniProt Q13148 267-414, looked up)
chain: NRQLERSGRFGGNPGGFGNQGGFGNSRGGGAGLGNNQGSNMGGGMNFGAFSINPAMMAAAQAALQSSWGMMGMLASQQNQSGPSGNNQNQGNMQREPNQAFGSGNNSYSGSNSGAAIGWGSASNAGSGSGFNGGFGSSMDSKSSGWGM
modifications: Cy5 (mono NHS ester) label in TCCD and, at 1% of the protein, in FRAP; unlabelled in the other assays
notes: source: E. coli BL21(DE3), purified from inclusion bodies (HisTrap in 8 M urea), buffer exchanged into 20 mM MES pH 6.0

The target of assay [1] is B2. Kind of assay: two-color coincidence detection (TCCD), confocal single-molecule fluorescence; fluorescently labelled TDP-43^LCD and labelled sHsp, diluted to 200 nM in 20 mM MES pH 6.0, 25°C, both in solution; peaks found in both channels within 10 ms counted as coincident (hetero-oligomers). Conditions: both partners purified.
Assay [2] addresses T1, HspB5^WT (wild-type human HspB5, αB‐crystallin) (human, UniProt P02511 1-175, Alexa Fluor 647 (NHS ester) label in TCCD and in the condensate partitioning experiment; unlabelled in the other assays).
T1 construct: Small heat shock protein HspB5 (αB-crystallin), human, wild type, full-length isoform; Vector pET3a or pET24a; source: E. coli BL21(DE3), purified
T1 sequence (looked up): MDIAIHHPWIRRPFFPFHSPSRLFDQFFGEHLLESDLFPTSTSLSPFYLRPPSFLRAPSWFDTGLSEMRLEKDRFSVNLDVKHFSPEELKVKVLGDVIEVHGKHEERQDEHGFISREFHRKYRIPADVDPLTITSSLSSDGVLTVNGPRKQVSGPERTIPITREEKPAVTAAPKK
Described as above. Conditions: both partners purified.

B1: HspB5^ACD (core α‐crystallin domain of HspB5, residues 68–162) (domain or fragment, human, UniProt P02511 68-162, looked up)
chain: MRLEKDRFSVNLDVKHFSPEELKVKVLGDVIEVHGKHEERQDEHGFISREFHRKYRIPADVDPLTITSSLSSDGVLTVNGPRKQVSGPERTIPIT
modifications: Alexa Fluor 647 (NHS ester) label in TCCD and in the condensate partitioning experiment
notes: Small heat shock protein HspB5 (αB-crystallin), α-crystallin domain, residues 68-162; pET28 vector, gift of A. Laganowsky (Laganowsky et al., 2010); also called core domain of HspB5; source: E. coli BL21(DE3), purified
Regarding B1, the binding result in assay [1] is recorded as “binds”.

As to B2, the binding result in assay [2] is recorded as “binds”.

Source of the values: article PMC13140710, “Small heat shock proteins HspB1 and HspB5 differentially alter the condensation and aggregation of the TDP‐43 low‐complexity domain” (Protein Science : A Publication of the Protein Society, 2026).
